T1: Rad50 recombinant protein (Sulfolobus acidocaldarius) (S. acidocaldarius, UniProt O33600 1-886)
T1 construct: Rad50, Sulfolobus acidocaldarius, purified recombinant protein; source: recombinant, purified (Ni-NTA, gel filtration through Sephadex 200)
T1 sequence (looked up): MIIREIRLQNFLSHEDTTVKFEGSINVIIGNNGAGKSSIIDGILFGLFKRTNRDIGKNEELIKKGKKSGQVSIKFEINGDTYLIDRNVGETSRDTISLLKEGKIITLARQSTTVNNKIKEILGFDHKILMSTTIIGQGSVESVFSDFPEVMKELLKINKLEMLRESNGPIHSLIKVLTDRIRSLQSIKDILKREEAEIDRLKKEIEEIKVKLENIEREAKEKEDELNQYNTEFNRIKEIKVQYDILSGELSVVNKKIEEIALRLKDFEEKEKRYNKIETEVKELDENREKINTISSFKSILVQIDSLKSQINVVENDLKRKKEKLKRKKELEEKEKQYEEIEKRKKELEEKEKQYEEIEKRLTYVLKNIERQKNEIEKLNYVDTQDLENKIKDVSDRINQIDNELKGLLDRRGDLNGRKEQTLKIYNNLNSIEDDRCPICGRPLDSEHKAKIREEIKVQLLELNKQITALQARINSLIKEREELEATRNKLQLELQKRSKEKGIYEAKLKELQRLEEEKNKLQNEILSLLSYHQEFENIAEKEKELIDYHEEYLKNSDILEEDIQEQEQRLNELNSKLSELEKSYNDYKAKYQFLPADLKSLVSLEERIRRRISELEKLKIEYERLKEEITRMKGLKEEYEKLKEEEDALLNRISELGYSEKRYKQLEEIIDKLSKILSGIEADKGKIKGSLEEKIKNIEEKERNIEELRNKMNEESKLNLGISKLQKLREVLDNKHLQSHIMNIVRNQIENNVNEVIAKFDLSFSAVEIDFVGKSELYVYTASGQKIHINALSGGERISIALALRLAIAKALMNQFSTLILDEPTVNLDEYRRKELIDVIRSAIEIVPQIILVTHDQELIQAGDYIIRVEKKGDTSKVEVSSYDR


Target: T1, Rad50 recombinant protein (Sulfolobus …)
Assay: co-IP; anti-Rad50 purified IgGs and protein A-sepharose on a mixture of purified recombinant proteins (60 nM Rad50, Mre11 and NurA, 300 nM HerA) in IP buffer (20 mM Hepes pH 7.5, 100 mM NaCl, 15 mM MgCl2, 5 mM beta-mercaptoethanol); 4°C; immunoblot
Settings: both partners purified

Binder	binding result
Mre11 recombinant protein (Sulfolobus acidocaldarius) (natural protein, S. acidocaldarius, UniProt Q8NKQ0 1-382, looked up, Mre11, Sulfolobus acidocaldarius, purified recombinant protein; source: recombinant, purified (Ni-NTA, gel filtration through Sephadex 200)) MQLLHISDTHLGKRQYNLESREKDVYDTFTQLIDIAINEHVKAVIHTGDLFDVNNPPNRAKLHAIKELKRLKDHNIPFICIAGDHDSPKRKEEIYPQRILEEFNLIKILQKIDNRVKLENVEVYGISHISNVSVNDLKEQLSKVKPETRKSILMLHQGIRTYLPYQGAWQIELSDLPKGFSLYAVGHLHSRRKDYLDGGALIEIAGSPDIMREEEIEDYQKSKKGATLIDMSGDLPSINYINVNIRDQLVLDINVDKIEQSIESVIQKLKENVKNDKKPILHIELEGTVPIRKDVLMTKLQALRDYVEHYRIYKNNIVSIKEENLKTKLKTTYSSLNDIIADYLKGIGYTDEETKIIIDIINEEDEKKVEELLKKFAGVEDK	binds
HerA recombinant protein (Sulfolobus acidocaldarius) (natural protein, S. acidocaldarius, UniProt F2Z5Z6 1-495, looked up, HerA bipolar DNA helicase, Sulfolobus acidocaldarius, purified recombinant protein; also called HerA bipolar helicase) MTIGYIIGSATINEATAILEQKIRAGYYVILEYDGDKILGLITNVYTGSPLLDDNLNDVKFVQRIKQLEANKIPFFIKARIKLLCKLDGKFTQPDLPPVAGTPVRLASDEELSTVFSAGDVRIGKLIGSNVEVKIRLNPLSRHLAILAATGSGKSNTVAILSQRLVEIGGSILIFDYHGEYYDSTLPNLNIIEPKLNPLYLSVNEFATLLEIRENANIQYRIIRRTFNQLKEEINNEIKEGKTSLAELNSNFFERLKVKIEEEGRNEKRKESKDEVLNKVEDFAERYSDIIDITFGDVINKIKLGKINVVNLSSLDEDAIDAIVAHYLRRILTSRKENKIKKDSGLKFPILTVVEEAHVLLSKDTNTLTKKWAGRIAREGRKFGVGLIIVSQRPKGLDENILSQMTNKIILKIVEPSDKKYVLETSDNLSEDLADGLSSLDTGEAIIIGNVVKLPTIIKIDKFEGKLSGSDPNLTEEWKRAKEEEIVHSDVSDWG	binds

— paper PMC2288612, “The Mre11 protein interacts with both Rad50 and the HerA bipolar helicase and is recruited to DNA following gamma irradiation in the archaeon Sulfolobus acidocaldarius” (BMC Molecular Biology, 2008)
